Measured values from article PMC10883268.

Assays:
[1] = target: SecY_(A103C-V353C)EG (E. coli) (UniProt P0AGA2)
[2] = target: SecY_(A103C-V353C)EG (E. coli) (UniProt P0AGA2); remark: listed apart in the source

SecA, sequence (P10408 whole entry): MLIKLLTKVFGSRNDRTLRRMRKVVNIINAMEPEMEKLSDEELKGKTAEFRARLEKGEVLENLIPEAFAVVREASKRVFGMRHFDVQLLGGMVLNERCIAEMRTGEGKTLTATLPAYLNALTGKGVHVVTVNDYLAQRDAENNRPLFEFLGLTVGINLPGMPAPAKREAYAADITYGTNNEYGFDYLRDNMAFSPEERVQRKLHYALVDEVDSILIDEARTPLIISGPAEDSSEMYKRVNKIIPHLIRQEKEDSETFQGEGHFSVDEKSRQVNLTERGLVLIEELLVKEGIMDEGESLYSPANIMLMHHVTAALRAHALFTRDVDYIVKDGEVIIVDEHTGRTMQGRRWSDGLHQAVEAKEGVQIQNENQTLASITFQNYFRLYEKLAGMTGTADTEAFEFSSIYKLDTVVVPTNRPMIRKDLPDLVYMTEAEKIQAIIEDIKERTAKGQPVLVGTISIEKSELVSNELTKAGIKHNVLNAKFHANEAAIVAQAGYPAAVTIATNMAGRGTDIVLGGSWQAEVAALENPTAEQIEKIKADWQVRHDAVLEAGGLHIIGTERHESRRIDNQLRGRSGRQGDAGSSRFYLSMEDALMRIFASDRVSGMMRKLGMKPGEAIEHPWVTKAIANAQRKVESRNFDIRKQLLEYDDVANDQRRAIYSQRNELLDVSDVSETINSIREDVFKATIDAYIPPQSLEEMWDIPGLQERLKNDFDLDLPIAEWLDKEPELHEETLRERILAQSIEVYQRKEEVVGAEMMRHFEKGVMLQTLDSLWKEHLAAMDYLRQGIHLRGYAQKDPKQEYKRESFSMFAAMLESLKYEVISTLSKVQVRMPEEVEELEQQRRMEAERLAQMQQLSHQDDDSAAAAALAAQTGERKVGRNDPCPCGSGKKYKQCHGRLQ

**Q.** Which results are given for “SecA (from UniProt P10408 1-901) (enzyme)”?
**A.** smFRET between dyes on SecY C103 and C353 in proteoliposomes: percent of time in the closed state with SecA, no nucleotide (~81% for SecYEG alone) [1]: > 91%; smFRET between dyes on SecY C103 and C353 in proteoliposomes: balance of open and closed states with 1 µM SecA, no nucleotide, no SS, against SecYEG alone [2]: 2 fold
